{"source": "patent US20030180282A1", "about": "“Method of treatment of thrombotic events” (priority 2002, published 2003)", "molecules": {"B1": {"name": "TNK: form of tissue plasminogen activator, thrombolytic agent (Genentech) (protein, UniProt P00750 36-562, looked up, variant T103N N117Q K296A H297A R298A R299A)", "Tissue-type plasminogen …": "SYQVICRDEKTQMIYQQHQSWLRPVLRSNRVEYCWCNSGRAQCHSVPVKSCSEPRCFNGGTCQQALYFSDFVCQCPEGFAGKCCEIDTRATCYEDQGISYRGNWSTAESGAECTNWQSSALAQKPYSGRRPDAIRLGLGNHNYCRNPDRDSKPWCYVFKAGKYSSEFCSTPACSEGNSDCYFGNGSAYRGTHSLTESGASCLPWNSMILIGKVYTAQNPSAQALGLGKHNYCRNPDGDAKPWCHVLKNRRLTWEYCDVPSCSTCGLRQYSQPQFRIKGGLFADIASHPWQAAIFAAAAASPGERFLCGGILISSCWILSAAHCFQERFPPHHLTVILGRTYRVVPGEEEQKFEVEKYIVHKEFDDDTYDNDIALLQLKSDSSRCAQESSVVRTVCLPPADLQLPDWTECELSGYGKHEALSPFYSERLKEAHVRLYPSSRCTSQHLLNRTVTDNMLCAGDTRSGGPQANLHDACQGDSGGPLVCLNDGRMTLVGIISWGLGCGQKDVPGVYTKVTNYLDWIRDNMRP"}}, "key": {"[1]": {"system": "platelets", "assay": "in vitro comparison of TNK versus t-PA on platelet activation and surface receptor expression (15 parameters)", "assay_type": "cell-based, human", "conditions": "TNK 12 μg/mL, t-PA 4 μg/mL, 30 minutes", "protocol": "(§1) Blood samples for the in vitro study were obtained from 9 healthy volunteers. None of the subjects smoked or had hypertension, diabetes, or an abnormal hematocrit. None had received aspirin or any other antiplatelet drugs. All subjects underwent blood sampling after at least 30 minutes of rest and 2 or more hours of fasting. Blood was drawn from an antecubital vein between 8 am and 10 am in order to avoid any diurnal influence. A 21-gauge butterfly needle was used to draw blood into a tube containing 3.8% sodium citrate (1:9 volume); the first 1.5 mL of free running blood was discarded. One tube was kept as an internal control. A second tube was incubated with tenecteplase (TNK) for 30 minutes at room temperature in order to achieve a final concentration of 12 μg/mL. […]\nFor the platelet aggregation (PA) studies, platelet-rich plasma (PRP) was first isolated. […] Platelet counts were determined for each PRP sample with a Coulter Counter ZM (Coulter Co., Hialeah, Fla.). […] Platelet aggregation was determined by using a 4 channel Chrono-log Lumi-Aggregometer (model 560-Ca) and expressed as the maximum percentage of light transmittance change (% max) from the baseline at the end of the recording time. […] Platelet aggregability curves were recorded for 6 minutes and analyzed according to internationally established standards (see, e.g., Ruggeri, Z. M. (1994) Semin. Hemat. 31:229-239). […]"}, "[2]": {"system": "platelets", "assay": "rapid platelet-function assay (Ultegra)", "assay_type": "cell-based, human", "conditions": "TNK 12 μg/mL, t-PA 4 μg/mL", "protocol": "(§2) Blood samples for the in vitro study were obtained from 9 healthy volunteers. None of the subjects smoked or had hypertension, diabetes, or an abnormal hematocrit. None had received aspirin or any other antiplatelet drugs. All subjects underwent blood sampling after at least 30 minutes of rest and 2 or more hours of fasting. Blood was drawn from an antecubital vein between 8 am and 10 am in order to avoid any diurnal influence. A 21-gauge butterfly needle was used to draw blood into a tube containing 3.8% sodium citrate (1:9 volume); the first 1.5 mL of free running blood was discarded. One tube was kept as an internal control. A second tube was incubated with tenecteplase (TNK) for 30 minutes at room temperature in order to achieve a final concentration of 12 μg/mL. The third tube was similarly incubated with alteplase (t-PA) to achieve a concentration of 4 μg/mL. The concentrations of TNK and t-PA that were chosen approximated conventional plasma levels observed in patients receiving TNK and t-PA bolus (30 mg, and 15 mg, respectively; data on file, Genentech, Inc., South San Francisco, Calif.). Fresh solutions of TNK and t-PA were prepared in Dulbecco's phosphate buffered saline (DPBS) ex tempore on the morning of the platelet studies.\nWith rapid platelet-function assay (RPFA (Ultegra®); Accumetrics, Inc., San Diego, Calif.), polystyrene beads coated with fibrinogen are placed in a cartridge along with a peptide that activates the thrombin receptor. A whole blood citrate mixture is added to the cartridge, and agglutination between platelets and coated beads is recorded. The data mirror turbidometric platelet aggregation and reflect the degree of platelet glycoprotein IIb/IIIa blockade.\nFor all comparisons, statistical analyses were done by using repeated measures ANOVA. Post hoc comparison was performed by use of the Bonferroni t-test to identify specific differences in platelet aggregation and receptor expression between patients treated with TNK and t-PA, and controls. […] Normally distributed data were expressed as mean±SE, and skewed data as median (range). […]"}, "[3]": {"system": "platelets", "assay": "in vitro whole blood aggregometry (impedance)", "assay_type": "cell-based, human", "conditions": "5 μg/mL collagen; TNK 12 μg/mL, t-PA 4 μg/mL", "protocol": "as §1\nWhole blood samples were prepared as follows: whole blood citrate mixture was diluted 1:1 with 0.5 mL Tyrode's buffer solution, then swirled gently. […] Platelet aggregability was expressed as the change in electrical impedance and is expressed in ohms. Aggregation curves were recorded for 6 minutes and analyzed by use of Aggrolink® software (Chrono-log Corporation).\n(§3) For all comparisons, statistical analyses were done by using repeated measures ANOVA. […] Normally distributed data were expressed as mean±SE, and skewed data as median (range). […]"}, "[4]": {"system": "platelets", "assay": "in vitro whole blood flow cytometry of platelet receptors and platelet-monocyte aggregates", "assay_type": "cell-based, human", "conditions": "TNK 12 μg/mL, t-PA 4 μg/mL", "protocol": "as §2\nThe surface expression of platelet receptors was determined by flow cytometry by using the following monoclonal antibodies: CD 41 (glycoprotein [GP] IIb/IIIa, α IIbβ3) CD 42b (GP Ib), CD 62p (P-selectin), CD 51/CD 61 (αvβ3, or vitronectin receptor), CD 31 (platelet endothelial cell adhesion molecule [PECAM]-1), CD 107a (LAMP-1), CD 107b (LAMP-2), CD 63 (LIMP or LAMP-3), and CD 151 (PETA-3) (PharMingen, San Diego, Calif.). Platelet-leukocyte interactions were assessed by using dual antibodies for a pan-platelet marker (CD 41), together with CD 14, a monocyte/macrophage marker. The blood-citrate mixture (50 μl) was diluted with 450 μl Tris buffered saline (TBS) (10 mmol/L Tris, 0.15 mol/L sodium chloride) and mixed by gently inverting an Eppendorf tube 2 times. The corresponding antibody was then added (5 μl) and incubated at 4° C. for 30 minutes. After incubation, 400 μl of 2% buffered paraformaldehyde was added for fixation. The samples were analyzed on a Becton Dickinson FACScan flow cytometer set up to measure fluorescent light scatter, as previously described. All parameters were collected by using 4-decade logarithmic amplification. The data were collected in list mode files and then analyzed. P-selectin was expressed as percent positive cells. Other antigens were expressed as log mean fluorescence intensity.\n(§4) For all comparisons, statistical analyses were done by using repeated measures ANOVA. Post hoc comparison was performed by use of the Bonferroni t-test to identify specific differences in platelet aggregation and receptor expression between patients treated with TNK and t-PA, and controls. The Mann-Whitney U test was used to analyze non-parametric data. Normally distributed data were expressed as mean±SE, and skewed data as median (range). Probability values of P<0.05 were regarded as statistically significant. Linear regression analysis was applied to normally distributed data for all study participants by using the Statview 4.1 program for analysis."}, "[5]": {"system": "platelet-derived biomarkers", "assay": "ASSENT-2 platelet substudy: ELISA of platelet-derived biomarkers in plasma of AMI patients", "assay_type": "in vivo, human", "protocol": "Forty-one patients with ST-segment elevation AMI enrolled in a single ASSENT-2 site (Rashid Hospital, Dubai, United Arab Emirates) were studied. The inclusion and exclusion criteria of ASSENT-2 have been previously reported ([no authors listed] (1999) Lancet 354:716-722). Briefly, patients included in the trial were between 18 and 70 years of age and were seen within 6 hours of symptom onset with >30 minutes of continuous symptoms. […] After informed consent was obtained, 7 serum samples were drawn. Samples were collected at baseline and at 30-minute intervals during a 180-minute period. Within 15 minutes of sample acquisition, plasma was separated by centrifugation at 800 g for 10 minutes, aspirated, placed in vials, and snapped frozen at −20° C.\nEnzyme-linked immunosorbent assay (ELISA) was used according to standard sandwich techniques for CD 31 (sPECAM-1), sVACAM-1, sP-selectin, (R&D Systems Inc. Minneapolis, Minn.), beta-thromboglobulin, Asserachrom® (Diagnostica Stago Inc., Parsippany, N.J.), platelet factor 4 Asserachrom®, thromboxane, and prostacyclin (Cayman Chemical Co., MI). Each sample was measured in duplicate, and the overall intra-assay coefficient of variation was between 3.1%±0.4% and 7.6%±1.0%, with a plasma recovery rate between 89.7% and 98.7%.\nas §4\nIn the ASSENT-2 Platelet Substudy, 21 of the 41 patients enrolled received TNK (30-50 mg), while the remaining 20 received t-PA (40-85 mg). There were no substantial differences in baseline characteristics for the AMI patients."}, "[6]": {"system": "platelets", "assay": "PFA-100 platelet function analyzer, closure time", "assay_type": "cell-based, human", "conditions": "TNK 12 μg/mL, t-PA 4 μg/mL", "protocol": "as §2\nThe PFA-100™ (Dade Behring, Deerfield, Ill.) is a high shear-inducing platelet function analyzer that simulates primary hemostasis after injury to a small vessel under flow conditions (see, e.g. Kundu, S. K. et al. (1996) Clin. Appl. Thromb. Hemost. 2:241-249). The device provides a constant negative pressure that aspirates a whole blood-citrate mixture, which comes into contact with a collagen-coated membrane and then passes through an aperture. The time required to obtain occlusion of the aperture is digitally recorded and is a measure of shear-induced platelet aggregation.\nas §3"}}}
{"molecule": "B1", "values": [{"measurement": "platelet function, 10 of 15 parameters, compared with baseline DPBS values", "setting": "[1]", "result": "diminished platelet function"}, {"measurement": "platelet activation units (Ultegra) compared with DPBS", "setting": "[2]", "result": "reduction"}, {"measurement": "platelet activation with the Ultegra analyzer, TNK versus t-PA samples", "setting": "[2]", "result": "statistically significant decrease"}, {"measurement": "whole blood aggregometry, TNK versus t-PA samples", "setting": "[3]", "result": "statistically significant decrease"}, {"measurement": "CD 151 expression, TNK versus t-PA samples", "setting": "[4]", "result": "Significant reduction"}, {"measurement": "PECAM-1 expression, TNK versus t-PA samples", "setting": "[4]", "result": "Significant reduction"}, {"measurement": "expression of PECAM-1 compared with saline-treated samples", "setting": "[4]", "result": "trend toward diminished expression"}, {"measurement": "expression of glycoprotein IIb/IIIa compared with saline-treated samples", "setting": "[4]", "result": "reduced expression"}, {"measurement": "formation of platelet-monocyte aggregates compared with saline-treated samples", "setting": "[4]", "result": "trend toward diminished"}, {"measurement": "formation of platelet-monocyte aggregates, TNK versus t-PA", "setting": "[4]", "result": "lower"}, {"measurement": "glycoprotein IIb/IIIa expression, TNK versus t-PA samples", "setting": "[4]", "result": "Significant reduction"}, {"measurement": "vitronectin receptor expression, TNK versus t-PA samples", "setting": "[4]", "result": "Significant reduction"}, {"measurement": "P-selectin plasma concentrations", "setting": "[5]; 30-60 minutes", "result": "immediate increase"}, {"measurement": "P-selectin plasma concentrations", "setting": "[5]; 120-150 minutes", "result": "significant decrease"}, {"measurement": "P-selectin plasma concentrations", "setting": "[5]; 180 minutes", "result": "rebound"}, {"measurement": "plasma levels of PECAM-1", "setting": "[5]; AMI patients after thrombolysis", "result": "significantly inhibited"}, {"measurement": "release of substances from platelets (plasma biomarkers)", "setting": "[5]; TNK 30-50 mg, t-PA 40-85 mg, 180-minute period", "result": "decreased release"}, {"measurement": "vascular cell adhesion molecule-1 (VCAM-1) release", "setting": "[5]; after 90 minutes", "result": "inhibited significantly"}, {"measurement": "inhibition of thromboxane formation, TNK versus t-PA", "setting": "[5]; human, in vivo", "result": "significantly stronger"}, {"measurement": "pattern of prostacyclin release, between the agents", "setting": "[5]; human, in vivo", "result": "very similar"}, {"measurement": "plasma concentrations of prostacyclin", "setting": "[5]; human, in vivo", "result": "significant and early decrease"}, {"measurement": "plasma concentrations of thromboxane", "setting": "[5]; human, in vivo", "result": "significant and early decrease"}, {"measurement": "prevention of platelet activation, TNK versus t-PA group", "setting": "[5]; human, in vivo", "result": "stronger prevention of platelet activation"}, {"measurement": "closure time (PFA-100) compared with DPBS", "setting": "[6]", "result": "prolongation"}, {"measurement": "closure time with the ADP/collagen cartridge (PFA-100), TNK versus t-PA samples", "setting": "[6]", "result": "extension"}]}
